Reference: publication PMC5943153 (Molecular microbiology, 2018)
Several values for one entry are separate records, joined by “and”; a condition that tells them apart may be missing. Equal entries are not always repeated.

T1: T25-HP0221 (NifU) (Helicobacter pylori strain 26695, UniProt O25009 2-326)
T1 sequence (looked up): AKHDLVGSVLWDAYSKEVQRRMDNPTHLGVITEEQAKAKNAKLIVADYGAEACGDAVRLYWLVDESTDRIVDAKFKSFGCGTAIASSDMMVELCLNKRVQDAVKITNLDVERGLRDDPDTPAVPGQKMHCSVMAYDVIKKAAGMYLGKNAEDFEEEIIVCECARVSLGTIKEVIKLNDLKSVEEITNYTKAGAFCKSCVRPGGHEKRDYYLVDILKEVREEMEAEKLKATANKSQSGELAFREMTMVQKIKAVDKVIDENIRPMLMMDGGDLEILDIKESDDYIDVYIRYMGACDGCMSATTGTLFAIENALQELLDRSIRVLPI

T2: T25-HP1492 (Nfu) (Helicobacter pylori strain 26695, UniProt O26025 2-89)
T2 sequence (looked up): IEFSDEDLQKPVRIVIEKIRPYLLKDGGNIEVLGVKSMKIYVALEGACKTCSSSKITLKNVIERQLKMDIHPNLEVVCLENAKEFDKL

T3: HP0221-T25 (NifU) (Helicobacter pylori strain 26695, UniProt O25009 2-326)
T3 sequence (looked up): T1 sequence (looked up)

B1: Nfu (purified recombinant) (natural protein, Helicobacter pylori strain 26695, UniProt O26025 1-89, looked up)
chain: MIEFSDEDLQKPVRIVIEKIRPYLLKDGGNIEVLGVKSMKIYVALEGACKTCSSSKITLKNVIERQLKMDIHPNLEVVCLENAKEFDKL
B2: T18-HP0220 (natural protein, Helicobacter pylori strain 26695, UniProt O25008 2-387, looked up)
chain: LQRIYLDNNATTRIDPKVKEIMDPFLRDHYGNPSSLHQFGTETHPAIAEALDKLYKGINARDIDDVIITSCATESNNWVLKGVYFDECLKKGKNHIVTTVAEHPAVRSTCNFLESLGVEVTYLPINEHGSITAEQVKEAITEKTALVSVMWANNETGLIFPIEEIGAICKEKGVLFHTDAVQAIGKIPVDVLKANADFLSFSAHKFHGPKGIGGLYIRSGVGLTPLFHGGEHMNGRRSGTLNVPYIVGMGEAMKLAVEHLDYEKEVVGKLRDKLEEALLKIPDVMVVGDRIHRVPNTTLVSVRGIEGEAMLWDLNRSNIAASTGSACASEDLEANPVMVAIGASKELAHTAIRLSLSRFNTEAEIDKTIEVFSQAAVRLRNISSSY
B3: T18-HP1266 (natural protein, Helicobacter pylori strain 26695, UniProt O25856 2-844, looked up)
chain: ITMNINGKTIECQEGQSVLEAARSAGIYIPTICYLSGCSPTVACKMCMVEMDGKRVYSCNTKAKNNATILTNTPTLMDERKSIMQTYDVNHPLECGVCDKSGECELQDMTHLTGVEHQPYAVADDFKALDFWAKALYDPNLCIMCERCVTTCKDNVGENNLKATKADLHAPDKFKDSMSKDAFSVWSRKQKGIISFVGSVPCYDCGECIAVCPVGALSYKDFAYTANAWELKKIHSTCSHCSAGCLISYDVRHFDTLGEESKIFRVLNDFYHNPICGAGRFAFDVSSSPKGSANLKEAQNALKECEAVRIGGDITNEEAFLIERLRKELDFKIYNQEAYRFQQFLKVLGEIKRPSVEEIKTSHLVVTIGSSIKTENPLVRYAINNALKLNKASLIAMHPIKDNALANLCRSSFCITHEVGAEEILLGMLLKMLNIESAALKSLEDSKQNIVDEAALKALEEERKKALEQAEQGCSIGENKAENQEENKTEATTPKEENQEENKTEVKEEKIEVPTKTTYLLLEEAGINLETYEKILALLQKSNNTLLVVGEEIYSHKQAHNIAKMLRLLAQKSAIKLILIPPSANALGIASICQLSEEIFEHEKIVGIRAQGDFTINSDDRVFGKDAASKVDFILPSLNQLEGTITNIEGRVLPLKPALRFEGYDLSDIMQGFGFVEENLIECTHKLPTEAGFKAIEFDYLTNYFANDRVNHRGYLLGTSHFEKSAKECETIECEPIKPLKEKIAFNAYLKYPETQFNNATNKSENLQLKAGVYVSKAFLKKLNKEVGQNITLSKEEEELTGVLYLDESLDQEVFVISPSLLKNHSGFFREGVFDSVDLKEQA
B4: NifU (purified recombinant) (natural protein, Helicobacter pylori strain 26695, UniProt O25009 1-326, looked up)
chain: MAKHDLVGSVLWDAYSKEVQRRMDNPTHLGVITEEQAKAKNAKLIVADYGAEACGDAVRLYWLVDESTDRIVDAKFKSFGCGTAIASSDMMVELCLNKRVQDAVKITNLDVERGLRDDPDTPAVPGQKMHCSVMAYDVIKKAAGMYLGKNAEDFEEEIIVCECARVSLGTIKEVIKLNDLKSVEEITNYTKAGAFCKSCVRPGGHEKRDYYLVDILKEVREEMEAEKLKATANKSQSGELAFREMTMVQKIKAVDKVIDENIRPMLMMDGGDLEILDIKESDDYIDVYIRYMGACDGCMSATTGTLFAIENALQELLDRSIRVLPI
B5: T18-HP0207 (natural protein, Helicobacter pylori strain 26695, UniProt O24999 2-368, looked up)
chain: LTQEDVLNALKTIIYPNFEKDIVSFGFVKNITLHDDQLGLLIEIPSSSEETSAILRENISKAMQEKGVKALNLDIKTPPKPQAPKPTTKNLAKNIKHVVMISSGKGGVGKSTTSVNLSIALANLNQKVGLLDADVYGPNIPRMMGLQSADVIMDPSGKKLIPLKAFGVSVMSMGLLYDEGQSLIWRGPMLMRAIEQMLSDIIWGDLDVLVVDMPPGTGDAQLTLAQAVPLSAGITVTTPQIVSLDDAKRSLDMFKKLHIPIAGIVENMGSFVCEHCKKESEIFGSNSMSELLEAYHTQILAKLPLEPKVRLGGDRGEPIVISHPNSVSAKIFEKMAQDLSAFLERVKKEKLADNKDIQPTQTHACSH
B6: NifS (purified recombinant) (enzyme, Helicobacter pylori strain 26695, UniProt O25008 1-387, looked up)
chain: MLQRIYLDNNATTRIDPKVKEIMDPFLRDHYGNPSSLHQFGTETHPAIAEALDKLYKGINARDIDDVIITSCATESNNWVLKGVYFDECLKKGKNHIVTTVAEHPAVRSTCNFLESLGVEVTYLPINEHGSITAEQVKEAITEKTALVSVMWANNETGLIFPIEEIGAICKEKGVLFHTDAVQAIGKIPVDVLKANADFLSFSAHKFHGPKGIGGLYIRSGVGLTPLFHGGEHMNGRRSGTLNVPYIVGMGEAMKLAVEHLDYEKEVVGKLRDKLEEALLKIPDVMVVGDRIHRVPNTTLVSVRGIEGEAMLWDLNRSNIAASTGSACASEDLEANPVMVAIGASKELAHTAIRLSLSRFNTEAEIDKTIEVFSQAAVRLRNISSSY

How the values were obtained:
[1] = target: the molecule itself; test: SEC
[2] = target: T1, T25-HP0221 (NifU); test: two-hybrid
[3] = target: T25-HP0220 (NifS) (Helicobacter pylori strain 26695, UniProt O25008 2-387); test: two-hybrid
[4] = target: T2, T25-HP1492 (Nfu); test: two-hybrid
[5] = target: T3, HP0221-T25 (NifU); test: two-hybrid

| Binder | stoichiometry N [1] | growth OD595 in M63-maltose [2] [OD595] | growth OD595 in M63-maltose [3] [OD595] | growth OD595 in M63-maltose [4] [OD595] | growth OD595 in M63-maltose [5] [OD595] |
| --- | --- | --- | --- | --- | --- |
| B1 | 4 and 2 | – | – | – | – |
| B2 | – | 0.13 | 0.29 | 0.22 | 0.11 |
| B3 | – | – | 0.16 | 0.24 | – |
| B4 | 2 | – | – | – | – |
| B5 | – | 0.14 | 0.23 | 0.21 | 0.13 |
| B6 | 2 | – | – | – | – |
